Results on one substance are retold here after patent US20060272037A1.

The target of this experiment is Alpha2a adrenergic receptor-cam "chameleon" (mouse). Description: cell-based or functional assay.

On to purified Go protein, for which the Kd of the agonist [^3H]UK14304 on membranes containing α2AAR-cam after addition of purified Go is 3.4 nM, the Kd of the agonist [^3H]UK14304 on the same membranes with Go after addition of GTPγS worked out at 9.6 nM, the reduction by GTPγS of the FRET signal caused by 5 nM UK14304 in the presence of Go is more than 50% and the reduction by GTPγS of the binding of 5 nM [^3H]UK14304 in the presence of Go is more than 50%.
